Residue numbers refer to the chain shown, from its start.
B1: 393 (protein)
chain: SARSTQEGAAPAAMLHPEKWPRPATQRLIDPAVEKRVDALLKQLSVEEKVGQVIQGDIGTITPEDLRKYPLGSILAGGDSGPNGDDRAPPKEWLDLADAFYRVSLEKRPGHTPIPVLFGIDAVHGHNNIGSATIFPHNIALGMTRDPELLRRIGEVTAEEMAATGIDWTFAPALSVPRDDRWGRTYEGFSEDPEIVASYSAAIVEGFQGKYGSKDFMAPGRAVACAKHFLADGGTDQGRDQGDARISEDELIRIHNAGYPPAIDAGVLTVMASFSSWQGIKHHGHKQLLTDVLKGQMGFNGFIVGDWNAHDQVPGCTKFNCPTSLIAGLDMYMAADSWKQLYENTLAQVKDGTIPMARLDDAVRRILRVKVLAGLFEKPAPKDRPGLPGLETLGSPEHRAVGREAVRKSLVLLKNDKGTLPLSPKARVLVAGDGADNIGKQSGGWTISWQGTGNRNDEFPGATSILGGIRDAVADAGGSVEFDVAGQYKTKPDVAIVVFGEEPYAEFRGDVETLEYQPDQKQDLTLLKKLKDQGIPVVAVFLSGRPMWVNPELNASDAFVAAWLPGTEGGGVADVLFTDKAGKVQHDFAGKLSYSWPRTAAQTTVNRGDADYNPLFAYGYGLTYKDKSKVGTLPEESGVPAEARQNAGIYFRAGALRLPGRFL
modifications: truncated; signal peptide F-10T
B2: 395 (protein)
chain: B1 chain with S4I, I61V
modifications: truncated; signal peptide F-10T
B3: 400 (protein)
chain: B1 chain with R3A, S4I, P177V, I203Y, M356T, N646K
modifications: truncated; signal peptide F-10T
B4: 413 (protein)
chain: B1 chain with S4I, A13P, P147T, E502N, H586Y
modifications: truncated; signal peptide F-10T
B5: 409 (protein)
chain: B1 chain with R3A, S4I, P109D, P147T, T525S
modifications: truncated; signal peptide F-10T
B6: 411 (protein)
chain: B1 chain with R3A, S4I, L372S
modifications: truncated; signal peptide F-10T
B7: 412 (protein)
chain: B1 chain with R3A, S4I, E502N, R508Q
modifications: truncated; signal peptide F-10T
B8: 402 (protein)
chain: B1 chain with S4I, A13P, P147T, I203Y, T525S, H586Y
modifications: truncated; signal peptide F-10T, K-21R
B9: 406 (protein)
chain: B1 chain with S4I, A13P, P147T, E159G
modifications: truncated; signal peptide F-10T
B10: 407 (protein)
chain: B1 chain with R3A, S4I, P109D, P147T, E502N, H586Y
modifications: truncated; signal peptide F-10T
B11: 424 (protein)
chain: B1 chain with R3A, S4I, A13P, V204I, D291G
modifications: truncated; signal peptide F-10T
B12: 410 (protein)
chain: B1 chain with R3A, S4I, E502N, T525S
modifications: truncated; signal peptide F-10T
B13: 397 (protein)
chain: B1 chain with S4I, M161V, P177V, I203Y, A222I, D383G
modifications: truncated; signal peptide F-10T
B14: 403 (protein)
chain: B1 chain with R3A, S4I, A13P, P109D
modifications: truncated; signal peptide F-10T
B15: 425 (protein)
chain: B1 chain with S4I, P147T, A400T, E502N
modifications: truncated; signal peptide F-10T
B16: 421 (protein)
chain: B1 chain with R3A, S4I, P109D, A400T, E502N, H586Y
modifications: truncated; signal peptide F-10T
B17: 408 (protein)
chain: B1 chain with R3A, S4I, A13P, P147T, A226G, H586Y
modifications: truncated; signal peptide F-10T
B18: 401 (protein)
chain: B1 chain with R3A, S4I, T25A, N128H, I203Y, T525S
modifications: truncated; signal peptide F-10T
B19: 427 (protein)
chain: B1 chain with R3A, S4I, N128H, E502N, H586Y
modifications: truncated; signal peptide F-10T
B20: 396 (protein)
chain: B1 chain with R3A, A601V
modifications: truncated; signal peptide F-10T
B21: 419 (protein)
chain: B1 chain with S4I, P109D, P147T, H586Y
modifications: truncated; signal peptide F-10T
B22: 414 (protein)
chain: B1 chain with S4I, P177V, I203Y, A400T, E502N, T525S
modifications: truncated; signal peptide F-10T
B23: 416 (protein)
chain: B1 chain with R3A, S4I, P109D, D351E, H586Y
modifications: truncated; signal peptide F-10T
B24: 415 (protein)
chain: B1 chain with R3A, S4I, A13P, N128H, E502N, R508Q
modifications: truncated; signal peptide F-10T
B25: 399 (protein)
chain: B1 chain with S4I, P109D, M356T
modifications: truncated; signal peptide F-10T
B26: 422 (protein)
chain: B1 chain with R3A, S4I, A13P, P147T, A400T, E502N, R508Q
modifications: truncated; signal peptide F-10T
B27: 405 (protein)
chain: B1 chain with R3A, S4I, A13P, A400T, H586Y
modifications: truncated; signal peptide F-10T
B28: 423 (protein)
chain: B1 chain with R3A, S4I, P109D, A400T
modifications: truncated; signal peptide F-10T
B29: 398 (protein)
chain: B1 chain with S4I, S213T
modifications: truncated; signal peptide F-10T
B30: 417 (protein)
chain: B1 chain with R3A, S4I, R508Q
modifications: truncated; signal peptide F-10T
B31: 418 (protein)
chain: B1 chain with S4I, A13P, P177V, I203Y, A400T
modifications: truncated; signal peptide F-10T, N-5H
B32: 426 (protein)
chain: B1 chain with R3A, S4I, A400T
modifications: truncated; signal peptide F-10T
B33: 404 (protein)
chain: B1 chain with R3A, S4I, A13P, P109D, N128K, P597A
modifications: truncated; signal peptide F-10T

Experiment: High throughput cellobiose assay: fold improvement in cellobiase activity of CelA variants over a control enzyme (Tables 2A-2D, 3, 5, 6, 7)
Format: biochemical
Conditions: 3.3 g/l cellobiose, 65° C. and pH 5 (incubation overnight); relative to Control #5, Variant No. 366 (SEQ ID NO: 9)

Row | Molecule | Fold Improvement over Control Variant
1 | B1 | ++ (++ = 1.1 to 2.0 fold improvement over control Variant No. 366)
2 | B2 | ++ (++ = 1.1 to 2.0 fold improvement over control Variant No. 366)
3 | B3 | ++ (++ = 1.1 to 2.0 fold improvement over control Variant No. 366)
4 | B4 | +++ (+++ = 2.1 to 3.0 fold improvement over control Variant No. 366)
5 | B5 | +++ (+++ = 2.1 to 3.0 fold improvement over control Variant No. 366)
6 | B6 | ++ (++ = 1.1 to 2.0 fold improvement over control Variant No. 366)
7 | B7 | +++ (+++ = 2.1 to 3.0 fold improvement over control Variant No. 366)
8 | B8 | ++ (++ = 1.1 to 2.0 fold improvement over control Variant No. 366)
9 | B9 | ++ (++ = 1.1 to 2.0 fold improvement over control Variant No. 366)
10 | B10 | +++ (+++ = 2.1 to 3.0 fold improvement over control Variant No. 366)
11 | B11 | ++ (++ = 1.1 to 2.0 fold improvement over control Variant No. 366)
12 | B12 | +++ (+++ = 2.1 to 3.0 fold improvement over control Variant No. 366)
13 | B13 | ++ (++ = 1.1 to 2.0 fold improvement over control Variant No. 366)
14 | B14 | ++ (++ = 1.1 to 2.0 fold improvement over control Variant No. 366)
15 | B15 | +++ (+++ = 2.1 to 3.0 fold improvement over control Variant No. 366)
16 | B16 | ++ (++ = 1.1 to 2.0 fold improvement over control Variant No. 366)
17 | B17 | +++ (+++ = 2.1 to 3.0 fold improvement over control Variant No. 366)

Row | Molecule | Fold Improvement over Control Variant
18 | B18 | ++ (++ = 1.1 to 2.0 fold improvement over control Variant No. 366)
19 | B19 | ++ (++ = 1.1 to 2.0 fold improvement over control Variant No. 366)
20 | B20 | ++ (++ = 1.1 to 2.0 fold improvement over control Variant No. 366)
21 | B21 | ++ (++ = 1.1 to 2.0 fold improvement over control Variant No. 366)
22 | B22 | ++ (++ = 1.1 to 2.0 fold improvement over control Variant No. 366)
23 | B23 | ++ (++ = 1.1 to 2.0 fold improvement over control Variant No. 366)
24 | B24 | ++ (++ = 1.1 to 2.0 fold improvement over control Variant No. 366)
25 | B25 | ++ (++ = 1.1 to 2.0 fold improvement over control Variant No. 366)
26 | B26 | +++ (+++ = 2.1 to 3.0 fold improvement over control Variant No. 366)
27 | B27 | ++ (++ = 1.1 to 2.0 fold improvement over control Variant No. 366)
28 | B28 | ++ (++ = 1.1 to 2.0 fold improvement over control Variant No. 366)
29 | B29 | ++ (++ = 1.1 to 2.0 fold improvement over control Variant No. 366)
30 | B30 | ++ (++ = 1.1 to 2.0 fold improvement over control Variant No. 366)
31 | B31 | ++ (++ = 1.1 to 2.0 fold improvement over control Variant No. 366)
32 | B32 | ++ (++ = 1.1 to 2.0 fold improvement over control Variant No. 366)
33 | B33 | ++ (++ = 1.1 to 2.0 fold improvement over control Variant No. 366)

Reference: patent US8357523B2, “Beta-glucosidase variant enzymes and related polynucleotides” (Codexis, Inc., priority 2009, dated 2013)
